This note sets out measurements from patent publication US9708383 (Novo Nordisk, dated 2017).

Usually IC50 stands for the concentration that gives 50% inhibition.

*1 amine or outer side, *2 acyl side, *3 side chain or, on linkers, in order; H or OH if unused. Where no end group is shown, it is not given here. Side-chain parts run from the residue outwards. [ ]: non-standard residue; d: D form. The star is where a group is joined. Decanoyl(10-(4-HOOC-PhO)) = O=C(O)c1ccc(OCCCCCCCCCC(=O)*)cc1; C16 diacid = O=C(O)CCCCCCCCCCCCCCC(=O)*; γGlu = O=C(O)[C@H](CCC(=O)[*:2])N[*:1]; 13‑carboxytridecanoyl = C14 diacid; AEEA = NCCOCCOCC(=O)O; Aib = CC(C)(N)C(=O)O

The target in test [1] is T1, human GLP-1 receptor (human, UniProt P43220 24-463).
T1 construct: whole, on cells; Used as purified membranes of the transfected hamster cells, not whole cells; also called hGLP-1
Description: SPA, 2.0% vs 0.005% HSA.

Test [2] concerns the target T1, human GLP-1 receptor. Description: SPA, displacement of 125I-GLP-1(7-36)NH2, 0.005% HSA. (Displacement assays read how much labelled ligand stays bound in the presence of the test substance.)

In the case of H[Aib]EGTFTSDVSK([AEEA-AEEA-AEEA-AEEA-AEEA-AEEA-γGlu-13‑carboxytridecanoyl])YLEEQAVREFIAK([AEEA-AEEA-AEEA-AEEA-AEEA-AEEA-γGlu-13‑carboxytridecanoyl])LVRGRG [GLP-1 derivative of Example 131: [Aib8,Lys18,Glu22,Val25,Arg26,Lys31,Arg34]-GLP-1-(7-37)-peptide], the “ratio IC50 high HSA/IC50 low HSA” value with human GLP-1 receptor [1] was > 1. In the test with human GLP-1 receptor [2], the IC50 is < 1 µM.
In the same order, the values of H[Aib]EGTFTSDVSK([AEEA-AEEA-AEEA-AEEA-AEEA-AEEA-γGlu-13‑carboxytridecanoyl])YLEEQAVREFIAK([AEEA-AEEA-AEEA-AEEA-AEEA-AEEA-γGlu-13‑carboxytridecanoyl])LVRGRG [GLP-1 derivative of Example 144: [Aib8,Lys18,Glu22,Val25,Arg26,Lys31,Arg34]-GLP-1-(7-37)-peptide] are > 1 and < 1 µM.
Taken in the same sequence, the figures for H[Aib]EGTFTSDVSK([AEEA-AEEA-γGlu-γGlu-C16 diacid])YLEEQAVREFIAK([AEEA-AEEA-γGlu-γGlu-C16 diacid])LVRGRG [GLP-1 derivative of Example 134: [Aib8,Lys18,Glu22,Val25,Arg26,Lys31,Arg34]-GLP-1-(7-37)-peptide] were > 1 and < 1 µM.
As to H[Aib]EGTFTSDVSK([AEEA-AEEA-γGlu-13‑carboxytridecanoyl])YLEGQAAK([AEEA-AEEA-γGlu-13‑carboxytridecanoyl])EFIAWLVQGRG [GLP-1 derivative of Example 141: [Aib8,Lys18,Gln34]-GLP-1-(7-37)-peptide], the “ratio IC50 high HSA/IC50 low HSA” value with human GLP-1 receptor [1] is > 1. Also, in the test with human GLP-1 receptor [2], the IC50 was < 1 µM.

B1: GLP-1 derivative of Example 135: [Aib8,Lys18,Glu22,Val25,Arg26,Lys31,Arg34]-GLP-1-(7-37)-peptide amide (peptide)
peptide: H[Aib]EGTFTSDVSK([AEEA-AEEA-AEEA-AEEA-γGlu-C16 diacid])YLEEQAVREFIAK([AEEA-AEEA-AEEA-AEEA-γGlu-C16 diacid])LVRGRG-NH2
modifications: N-terminus assumed
SMILES: CC[C@H](C)[C@H](NC(=O)[C@H](Cc1ccccc1)NC(=O)[C@H](CCC(=O)O)NC(=O)[C@H](CCCNC(=N)N)NC(=O)[C@@H](NC(=O)[C@H](C)NC(=O)[C@H](CCC(N)=O)NC(=O)[C@H](CCC(=O)O)NC(=O)[C@H](CCC(=O)O)NC(=O)[C@H](CC(C)C)NC(=O)[C@H](Cc1ccc(O)cc1)NC(=O)[C@H](CCCCNC(=O)COCCOCCNC(=O)COCCOCCNC(=O)COCCOCCNC(=O)COCCOCCNC(=O)CC[C@H](NC(=O)CCCCCCCCCCCCCCC(=O)O)C(=O)O)NC(=O)[C@H](CO)NC(=O)[C@@H](NC(=O)[C@H](CC(=O)O)NC(=O)[C@H](CO)NC(=O)[C@@H](NC(=O)[C@H](Cc1ccccc1)NC(=O)[C@@H](NC(=O)CNC(=O)[C@H](CCC(=O)O)NC(=O)C(C)(C)NC(=O)[C@@H](N)Cc1c[nH]cn1)[C@@H](C)O)[C@@H](C)O)C(C)C)C(C)C)C(=O)N[C@@H](C)C(=O)N[C@@H](CCCCNC(=O)COCCOCCNC(=O)COCCOCCNC(=O)COCCOCCNC(=O)COCCOCCNC(=O)CC[C@H](NC(=O)CCCCCCCCCCCCCCC(=O)O)C(=O)O)C(=O)N[C@@H](CC(C)C)C(=O)N[C@H](C(=O)N[C@@H](CCCNC(=N)N)C(=O)NCC(=O)N[C@@H](CCCNC(=N)N)C(=O)NCC(N)=O)C(C)C
B1: the “ratio IC50 high HSA/IC50 low HSA” value with human GLP-1 receptor [1] is > 1. For the same molecule, the IC50 with human GLP-1 receptor [2] was < 1 µM.
In the case of H[Aib]EGTFTSDVSK([AEEA-AEEA-γGlu-Decanoyl(10-(4-HOOC-PhO))])YLEGQAAK([AEEA-AEEA-γGlu-Decanoyl(10-(4-HOOC-PhO))])EFIAWLVHGRG [GLP-1 derivative of Example 142: [Aib8,Lys18,His34]-GLP-1-(7-37)-peptide], the “ratio IC50 high HSA/IC50 low HSA” value in the test with human GLP-1 receptor [1] was > 1. The IC50 with human GLP-1 receptor [2] was < 1 µM.
In the same order, the values of H[Aib]EGTFTSDVSKYLEEQAVREFIAKLVRGRG (not fully specified (residues 12, 25)) [GLP-1 derivative of Example 137: [Aib8,Lys18,Glu22,Val25,Arg26,Lys31,Arg34]-GLP-1-(7-37)-peptide] are > 1 and < 1 µM.
Taken in the same sequence, the figures for H[Aib]EGTLTSDVSK([AEEA-AEEA-γGlu-Decanoyl(10-(4-HOOC-PhO))])YLEGQAAK([AEEA-AEEA-γGlu-Decanoyl(10-(4-HOOC-PhO))])EFIAWLVQGRG [GLP-1 derivative of Example 139: [Aib8,Leu12,Lys18,Gln34]-GLP-1-(7-37)-peptide] were > 1 and < 1 µM.
